Assay results reported in patent US11795460B2, “Compositions and methods for TTR gene editing and treating ATTR amyloidosis” (Intellia Therapeutics, Inc., priority 2017, dated 2023).
Strand notation (5' to 3'): a small letter for the sugar, then the base; units joined by * are phosphorothioate-linked, units joined directly phosphodiester-linked; [ ] holds rarer units or linkages, { } end groups; capitals alone tell only the bases. m = 2'-O-methyl; r = 2'-OH (RNA)

B1: G000488: TTR sgRNA modified sequence, Human, SEQ ID No. 95; guide sequence of CR003346 (nucleic acid)
guide: mA*mA*mA*rGrUrUrCrUrArGrArUrGrCrUrGrUrCrCrGrGrUrUrUrUrArGrAmGmCmUmAmGmAmAmAmUmAmGmCrArArGrUrUrArArArArUrArArGrGrCrUrArGrUrCrCrGrUrUrArUrCrAmAmCmUmUmGmAmAmAmAmAmGmUmGmGmCmAmCmCmGmAmGmUmCmGmGmUmGmCmU*mU*mU*mU
B2: G000493: TTR sgRNA modified sequence, Human, SEQ ID No. 100; guide sequence of CR003368 (nucleic acid)
guide: mA*mA*mG*rUrGrCrCrUrUrCrCrArGrUrArArGrArUrUrGrUrUrUrUrArGrAmGmCmUmAmGmAmAmAmUmAmGmCrArArGrUrUrArArArArUrArArGrGrCrUrArGrUrCrCrGrUrUrArUrCrAmAmCmUmUmGmAmAmAmAmAmGmUmGmGmCmAmCmCmGmAmGmUmCmGmGmUmGmCmU*mU*mU*mU
B3: G000500: TTR sgRNA modified sequence, Human, SEQ ID No. 107; guide sequence of CR003337 (nucleic acid)
guide: mC*mC*mA*rGrUrCrCrArGrCrArArGrGrCrArGrArGrGrGrUrUrUrUrArGrAmGmCmUmAmGmAmAmAmUmAmGmCrArArGrUrUrArArArArUrArArGrGrCrUrArGrUrCrCrGrUrUrArUrCrAmAmCmUmUmGmAmAmAmAmAmGmUmGmGmCmAmCmCmGmAmGmUmCmGmGmUmGmCmU*mU*mU*mU
B4: G000490: TTR sgRNA modified sequence, Human, SEQ ID No. 97; guide sequence of CR003366 (nucleic acid)
guide: mA*mA*mA*rUrArGrArCrArCrCrArArArUrCrUrUrArCrGrUrUrUrUrArGrAmGmCmUmAmGmAmAmAmUmAmGmCrArArGrUrUrArArArArUrArArGrGrCrUrArGrUrCrCrGrUrUrArUrCrAmAmCmUmUmGmAmAmAmAmAmGmUmGmGmCmAmCmCmGmAmGmUmCmGmGmUmGmCmU*mU*mU*mU
B5: G000481: TTR sgRNA modified sequence, Human, SEQ ID No. 88; guide sequence of CR003345 (nucleic acid)
guide: mU*mC*mU*rArGrArArCrUrUrUrGrArCrCrArUrCrArGrGrUrUrUrUrArGrAmGmCmUmAmGmAmAmAmUmAmGmCrArArGrUrUrArArArArUrArArGrGrCrUrArGrUrCrCrGrUrUrArUrCrAmAmCmUmUmGmAmAmAmAmAmGmUmGmGmCmAmCmCmGmAmGmUmCmGmGmUmGmCmU*mU*mU*mU
B6: G000489: TTR sgRNA modified sequence, Human, SEQ ID No. 96; guide sequence of CR003344 (nucleic acid)
guide: mU*mU*mU*rGrArCrCrArUrCrArGrArGrGrArCrArCrUrGrUrUrUrUrArGrAmGmCmUmAmGmAmAmAmUmAmGmCrArArGrUrUrArArArArUrArArGrGrCrUrArGrUrCrCrGrUrUrArUrCrAmAmCmUmUmGmAmAmAmAmAmGmUmGmGmCmAmCmCmGmAmGmUmCmGmGmUmGmCmU*mU*mU*mU
B7: G000480: TTR sgRNA modified sequence, Human, SEQ ID No. 87; guide sequence of CR003353 (nucleic acid)
guide: mA*mA*mA*rGrGrCrUrGrCrUrGrArUrGrArCrArCrCrUrGrUrUrUrUrArGrAmGmCmUmAmGmAmAmAmUmAmGmCrArArGrUrUrArArArArUrArArGrGrCrUrArGrUrCrCrGrUrUrArUrCrAmAmCmUmUmGmAmAmAmAmAmGmUmGmGmCmAmCmCmGmAmGmUmCmGmGmUmGmCmU*mU*mU*mU
B8: G000482: TTR sgRNA modified sequence, Human, SEQ ID No. 89; guide sequence of CR003365 (nucleic acid)
guide: mU*mG*mU*rArGrArArGrGrGrArUrArUrArCrArArArGrGrUrUrUrUrArGrAmGmCmUmAmGmAmAmAmUmAmGmCrArArGrUrUrArArArArUrArArGrGrCrUrArGrUrCrCrGrUrUrArUrCrAmAmCmUmUmGmAmAmAmAmAmGmUmGmGmCmAmCmCmGmAmGmUmCmGmGmUmGmCmU*mU*mU*mU

Each molecule was assayed on TTR (assay: TTR editing in primary human hepatocytes transfected with Spy Cas9 protein and sgRNAs (Table 12)). Settings: primary human hepatocytes transfected with Spy Cas9 protein (RNP) and sgRNAs.
Type: cell-based
Method: (§1) Primary liver hepatocytes. Primary human liver hepatocytes (PHH) and primary cynomolgus liver hepatocytes (PCH) (Gibco) were cultured per the manufacturer's protocol (Invitrogen, protocol 11.28.2012). In brief, the cells were thawed and resuspended in hepatocyte thawing medium with supplements (Gibco, Cat. CM7000) followed by centrifugation at 100 g for 10 minutes for human and 80 g for 4 minutes for cyno. The supernatant was discarded and the pelleted cells resuspended in hepatocyte plating medium plus supplement pack (Invitrogen, Cat. A1217601 and CM3000). Cells were counted and plated on Bio-coat collagen I coated 96-well plates (ThermoFisher, Cat. 877272) at a density of 33,000 cells/well for human or 60,000 cells/well for cyno (or 65,000 cells/well when assaying effects on TTR protein, described further below). Plated cells were allowed to settle and adhere for 6 or 24 hours in a tissue culture incubator at 37° C. and 5% CO2 atmosphere. After incubation cells were checked for monolayer formation and media was replaced with hepatocyte culture medium with serum-free supplement pack (Invitrogen, Cat. A1217601 and CM4000).
[…] formation was performed prior to electroporation or transfection of Spy Cas9 protein loaded with guide RNAs (RNPs) onto cells. For dual guide (dgRNAs), individual crRNA and trRNA was pre-annealed by mixing equivalent amounts of reagent and incubating at 95° C. for 2 min and cooling to room temperature. Single guide (sgRNAs) were boiled at 95° C. for 2 min and cooling to room temperature. The boiled dgRNA or sgRNA was incubated with Spy Cas9 protein in Optimem for 10 minutes at room temperature to form a ribonucleoprotein (RNP) complex.
For RNP lipoplex transfections, cells were transfected with Lipofectamine RNAiMAX (ThermoFisher, Cat. 13778150) per the manufacturer's protocol. Cells were transfected with an RNP containing Spy Cas9 (10 nM), individual guide (10 nM), tracer RNA (10 nM), Lipofectamine RNAiMAX (1.0 μL/well) and OptiMem. RNP formation was performed as described above.
Transfected cells were harvested post-transfection at 24, 48, or 72 hours. The genomic DNA was extracted from each well of a 96-well plate using 50 μL/well BuccalAmp DNA Extraction solution (Epicentre, Cat. QE09050) per manufacturer's protocol. All DNA samples were subjected to PCR and subsequent NGS analyses, as described herein.
(§2) To quantitatively determine the efficiency of editing at the target location in the genome, sequencing was utilized to identify the presence of insertions and deletions introduced by gene editing.
(§3) Primers were designed around the target site within the gene of interest (e.g. TTR), and the genomic area of interest was amplified.
(§4) Additional PCR was performed per the manufacturer's protocols (Illumina) to add chemistry for sequencing. The amplicons were sequenced on an Illumina MiSeq instrument. The reads were aligned to a reference genome (e.g., the human reference genome (hg38), the cynomologus reference genome (mf5), the rat reference genome (rn6), or the mouse reference genome (mm10)) after eliminating those having low quality scores. The resulting files containing the reads were mapped to the reference genome (BAM files), where reads that overlapped the target region of interest were selected and the number of wild type reads versus the number of reads which contain an insertion, substitution, or deletion was calculated.
(§5) The editing percentage (e.g., the “editing efficiency” or “percent editing” or “indel frequency”) is defined as the total number of sequence reads with insertions/deletions (“indels”) or substitutions over the total number of sequence reads, including wild type.
Guides in modified sgRNA format targeting human and/or cyno TTR were delivered to primary human hepatocytes and primary cyno hepatocytes as described in Example 1. […]

Row | Molecule | Avg % Deletion [%] | Avg % Edit [%] | Avg % Insert [%]
1 | B1 | 35.00 | 61.27 | 26.30
2 | B2 | 2.67 | 41.40 | 38.90
3 | B3 | 3.83 | 65.53 | 62.00
4 | B4 | 9.80 | 55.90 | 46.13
5 | B5 | 19.43 | 46.90 | 27.77
6 | B6 | 9.43 | 60.17 | 51.07
7 | B7 | 4.70 | 81.80 | 77.15
8 | B8 | 10.10 | 66.67 | 56.57

What follows are molecules tested on TTR (assay: EC50 and maximum editing in primary cyno hepatocytes treated with LNP formulated U-depleted Spy Cas9 mRNA and sgRNAs (Tables 20, 22)). Settings: Table 20, LNP with U-depleted Spy Cas9 mRNA and human specific sgRNAs, dose response.
Type: cell-based, cynomolgus monkey
Set-up: key: % of sequence reads with indels or substitutions over total reads
Method: as §1
(§6) For LNPs prepared using the cross-flow technique, the LNPs were formed by impinging jet mixing of the lipid in ethanol with two volumes of RNA solutions and one volume of water. The lipid in ethanol is mixed through a mixing cross with the two volumes of RNA solution. A fourth stream of water is mixed with the outlet stream of the cross through an inline tee. (See WO2016010840 FIG. 2.) The LNPs were held for 1 hour at room temperature, and further diluted with water (approximately 1:1 v/v). Diluted LNPs were concentrated using tangential flow filtration on a flat sheet cartridge (Sartorius, 100 kD MWCO) and then buffer exchanged by diafiltration into 50 mM Tris, 45 mM NaCl, 5% (w/v) sucrose, pH 7.5 (TSS). Alternatively, the final buffer exchange into TSS was completed with PD-10 desalting columns (GE). If required, formulations were concentrated by centrifugation with Amicon 100 kDa centrifugal filters (Millipore). The resulting mixture was then filtered using a 0.2 μm sterile filter. The final LNP was stored at 4° C. or −80° C. until further use.
as §2, §3, §4, §5
(§7) Lipid nanoparticle formulations of modified sgRNAs targeting human TTR and the cyno matched sgRNA sequences were tested on primary human hepatocytes and primary cyno hepatocytes in a dose response curve. Primary human and cyno hepatocytes were plated as described in Example 1. Both cell lines were incubated at 37° C., 5% CO2 for 24 hours prior to treatment with LNPs. […]

Row | Molecule | Max Editing
9 | B1 | 21.63
10 | B2 | 61.15
11 | B3 | 58.04
12 | B4 | 90.76
13 | B5 | 95.07
14 | B6 | 89.21
15 | B7 | 20.32
16 | B8 | 97.47

The molecules below were run on TTR (assay: EC50 and maximum editing in primary human hepatocytes treated with LNP formulated U-depleted Spy Cas9 mRNA and sgRNAs (Tables 19, 21)). Settings: Table 19, LNP with U-depleted Spy Cas9 mRNA and human specific sgRNAs, dose response.
Type: cell-based
Set-up: key: % of sequence reads with indels or substitutions over total reads
Method: as §1, §6, §2, §3, §4, §5, §7

Row | Molecule | Max Editing
17 | B1 | 95.83
18 | B2 | 63.95
19 | B3 | 88.70
20 | B4 | 94.16
21 | B5 | 87.05
22 | B6 | 86.33
23 | B7 | 98.69
24 | B8 | 97.02

Each molecule was assayed on TTR (assay: TTR editing in primary cyno hepatocytes electroporated with Spy Cas9 protein and sgRNAs (Tables 14, 15)). Settings: Table 14; primary cyno hepatocytes electroporated with Spy Cas9 protein (RNP) and sgRNAs.
Type: cell-based, cynomolgus monkey
Procedure, shortened: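 Spy Cas9 RNPs with boiled sgRNAs electroporated (Lonza P3 buffer, program EX-147) into primary cynomolgus hepatocytes; harvest at 24, 48 or 72 h. TTR target site PCR-amplified and sequenced on Illumina MiSeq, reads aligned to mf5; percent editing is reads with indels or substitutions over total reads.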

Row | Molecule | Avg % Deletion [%] | Avg % Edit [%] | Avg % Insert [%]
25 | B1 | 4.27 | 9.63 | 5.37
26 | B2 | 2.10 | 50.13 | 48.07
27 | B3 | 2.63 | 45.20 | 42.60
28 | B4 | 7.27 | 61.67 | 54.47
29 | B5 | 35.50 | 69.13 | 33.73
30 | B6 | 14.17 | 67.53 | 53.53
31 | B7 | 0.37 | 10.20 | 9.83
32 | B8 | 20.03 | 75.17 | 55.23
